The target in this experiment is T1, α1β2γ2 GABAA receptor (Homo sapiens).
T1 chain 1: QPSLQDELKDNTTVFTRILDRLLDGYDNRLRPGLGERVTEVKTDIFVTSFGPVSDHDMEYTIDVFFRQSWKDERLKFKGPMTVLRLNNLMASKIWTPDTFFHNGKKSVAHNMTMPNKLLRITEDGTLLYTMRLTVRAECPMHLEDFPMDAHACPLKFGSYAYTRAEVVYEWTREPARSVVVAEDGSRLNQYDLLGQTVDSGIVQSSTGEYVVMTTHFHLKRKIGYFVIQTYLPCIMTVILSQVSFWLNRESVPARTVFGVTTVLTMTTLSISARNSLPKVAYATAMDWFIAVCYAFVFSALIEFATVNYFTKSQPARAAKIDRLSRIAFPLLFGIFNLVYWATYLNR
T1 chain 2: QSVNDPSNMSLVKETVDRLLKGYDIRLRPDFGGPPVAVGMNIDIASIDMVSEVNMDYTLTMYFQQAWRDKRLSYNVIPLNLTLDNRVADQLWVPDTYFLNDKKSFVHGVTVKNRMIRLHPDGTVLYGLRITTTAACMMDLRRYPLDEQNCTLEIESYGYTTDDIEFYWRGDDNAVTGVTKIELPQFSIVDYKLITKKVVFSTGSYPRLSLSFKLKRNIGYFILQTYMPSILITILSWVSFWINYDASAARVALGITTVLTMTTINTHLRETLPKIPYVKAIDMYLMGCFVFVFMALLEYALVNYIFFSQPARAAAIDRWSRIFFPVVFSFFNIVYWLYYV
T1 chain 3: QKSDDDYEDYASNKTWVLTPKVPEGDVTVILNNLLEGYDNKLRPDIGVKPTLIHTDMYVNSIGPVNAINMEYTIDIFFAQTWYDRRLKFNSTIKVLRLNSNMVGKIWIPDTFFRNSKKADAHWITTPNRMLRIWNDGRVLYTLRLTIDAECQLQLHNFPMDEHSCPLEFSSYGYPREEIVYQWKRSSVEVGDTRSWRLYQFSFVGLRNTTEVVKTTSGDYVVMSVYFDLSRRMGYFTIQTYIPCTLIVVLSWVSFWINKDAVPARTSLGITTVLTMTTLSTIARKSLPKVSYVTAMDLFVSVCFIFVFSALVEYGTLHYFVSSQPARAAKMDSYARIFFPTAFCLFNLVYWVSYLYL
In words: SEC.

B1: Fab175 (Fab, V domains shown)
VH: EVQLLESGEGLVQPGGSLRLSCAASGFTFKTYAMSWVRQAPGKGLEWVSAISGSGASTYYADFVEGRFTISRDNSKNTLYLQMNSLRAEDTAVYYCAKEPPAMVWFGGGYFDYWGQGTLVTVSS
VL: EIVLTQSPATLSLSPGERATLSCRASQSVSSYLAWYQQKPGQAPRLLIYDASNRATGIPARFSGSGSGTDFTLTISSLEPEDFAVYYCQQRSNWPPYSFGQGTKLEIK
B1: the “stoichiometry N” value was determined as 1 Fab per receptor.

Source of the values: publication PMC9394431 (Cell, 2022).
